Results published in patent US11325966.

What was measured:
Assay in all cases: cell-based or functional assay
[1] = molecular target: BG505 (T332N) N386A (HIV-1)
[2] = molecular target: JR-CSF (HIV-1) (UniProt P20871)
[3] = molecular target: JR-CSF N295A (HIV-1) (UniProt P20871)
[4] = molecular target: HIV-1 Env of pseudovirus ZM135M.PE10a (HIV-1)
[5] = molecular target: HIV-1 envelope (Env) of pseudovirus YU2_N276D (HIV-1) (UniProt P35961)
[6] = molecular target: HIV-1 envelope (Env) of pseudovirus 1054_07_TC4_1499 (HIV-1)
[7] = molecular target: HIV-1 envelope (Env) of pseudovirus 3103.v3.c10 (HIV-1)
[8] = molecular target: HIV-1 envelope (Env) of pseudovirus 6240_08_TA5_4622 (HIV-1)
[9] = molecular target: HIV-1 envelope (Env) of pseudovirus 1006_11_C3_1601 (HIV-1)
[10] = molecular target: HIV-1 envelope (Env) of pseudovirus 246F C1G (HIV-1)
[11] = molecular target: HIV-1 envelope (Env) of pseudovirus T278-50 (HIV-1)
[12] = molecular target: HIV-1 envelope (Env) of pseudovirus WITO4160.33 (HIV-1)
[13] = molecular target: HIV-1 envelope (Env) of pseudovirus T251-18 (HIV-1)
[14] = molecular target: HIV-1 envelope (Env) of pseudovirus 6041.v3.c23 (HIV-1)
[15] = molecular target: HIV-1 envelope (Env) of pseudovirus BJOX010000.06.2 (HIV-1)
[16] = molecular target: HIV-1 envelope (Env) of pseudovirus Q842.d12 (HIV-1)
[17] = molecular target: HIV-1 envelope (Env) of pseudovirus 191955_A11 (HIV-1)
[18] = molecular target: HIV-1 envelope (Env) of pseudovirus C1080.c03 (HIV-1)
[19] = molecular target: HIV-1 envelope (Env) of pseudovirus 1056_10_TA11_1826 (HIV-1)
[20] = molecular target: HIV-1 envelope (Env) of pseudovirus ZM247v1 (Rev-) (HIV-1)
[21] = molecular target: HIV-1 envelope (Env) of pseudovirus Ce0682_E4 (HIV-1)
[22] = molecular target: HIV-1 envelope (Env) of pseudovirus RHPA4259.7 (HIV-1)
[23] = molecular target: HIV-1 envelope (Env) of pseudovirus 6535.3 (HIV-1)
[24] = molecular target: HIV-1 envelope (Env) of pseudovirus 6545.v4.c1 (HIV-1)
[25] = molecular target: HIV-1 envelope (Env) of pseudovirus T257-31 (HIV-1)
[26] = molecular target: HIV-1 envelope (Env) of pseudovirus CNE17 (HIV-1)
[27] = molecular target: HIV-1 envelope (Env) of pseudovirus 7030102001E5 (Rev-) (HIV-1)
[28] = molecular target: HIV-1 envelope (Env) of pseudovirus CAP210.2.00.E8 (HIV-1)
[29] = molecular target: HIV-1 envelope (Env) of pseudovirus ZM249M.PL1 (HIV-1)
[30] = molecular target: HIV-1 envelope (Env) of pseudovirus 3301.v1.c24 (HIV-1)
[31] = molecular target: HIV-1 envelope (Env) of pseudovirus BG505/T332N (HIV-1)
[32] = molecular target: HIV-1 envelope (Env) of pseudovirus Ce703010054_2A2 (HIV-1)
[33] = molecular target: HIV-1 envelope (Env) of pseudovirus CNE20 (HIV-1)
[34] = molecular target: HIV-1 envelope (Env) of pseudovirus 249M B10 (HIV-1)
[35] = molecular target: HIV-1 envelope (Env) of pseudovirus C2101.c01 (HIV-1)
[36] = molecular target: HIV-1 YU2 Env N276D, on pseudovirus (HIV-1) (UniProt P35961)
[37] = molecular target: HIV-1 YU2 Env N280Y, on pseudovirus (HIV-1) (UniProt P35961)
[38] = molecular target: HIV-1 YU2 Env N332K, on pseudovirus (HIV-1) (UniProt P35961)

For 354BG8 (antibody), the IC50 in TZM-bl assay [1] was 0.004 µg/mL, the IC50 in TZM-bl assay [2] was 0.009 µg/mL and the IC50 in TZM-bl assay [3] was 0.006 µg/mL. The IC50 in TZM-bl assay [4] was 0.061 µg/mL and the IC80 in TZM-bl assay [4] was 0.263 µg/mL.

For BG1 (antibody), the IC50 in TZM-bl assay [5] was 18.8 µg/mL, the IC80 in TZM-bl assay [5] was over 30 µg/mL and the IC50 in TZM-bl assay [6] was over 30 µg/mL. For the same substance, the IC80 in TZM-bl assay [6] was over 30 µg/mL, the IC50 in TZM-bl assay [7] was over 30 µg/mL and the IC80 in TZM-bl assay [7] was over 30 µg/mL. For the same substance, the IC50 in TZM-bl assay [8] was over 30 µg/mL, the IC80 in TZM-bl assay [8] was over 30 µg/mL and the IC50 in TZM-bl assay [9] was over 30 µg/mL. It also gave an IC80 in TZM-bl assay [9] of over 30 µg/mL, an IC50 in TZM-bl assay [10] of over 30 µg/mL and an IC80 in TZM-bl assay [10] of over 30 µg/mL. The IC50 in TZM-bl assay [11] was 19.3 µg/mL, the IC80 in TZM-bl assay [11] was over 30 µg/mL and the IC50 in TZM-bl assay [12] was 0.002 µg/mL. The IC80 in TZM-bl assay [12] was 0.014 µg/mL, the IC50 in TZM-bl assay [13] was 3.59 µg/mL and the IC80 in TZM-bl assay [13] was 18 µg/mL. For the same substance, the IC50 in TZM-bl assay [14] was 6.75 µg/mL, the IC80 in TZM-bl assay [14] was 16.6 µg/mL and the IC50 in TZM-bl assay [15] was over 30 µg/mL. The IC80 in TZM-bl assay [15] was over 30 µg/mL, the IC50 in TZM-bl assay [16] was 1.4 µg/mL and the IC80 in TZM-bl assay [16] was 4.3 µg/mL. For the same substance, the IC50 in TZM-bl assay [17] was 0.008 µg/mL, the IC80 in TZM-bl assay [17] was 0.018 µg/mL and the IC50 in TZM-bl assay [18] was 0.002 µg/mL. The IC80 in TZM-bl assay [18] was 0.005 µg/mL, the IC50 in TZM-bl assay [19] was 5.43 µg/mL and the IC80 in TZM-bl assay [19] was 29.9 µg/mL. It also gave an IC50 in TZM-bl assay [20] of over 30 µg/mL, an IC80 in TZM-bl assay [20] of over 30 µg/mL and an IC50 in TZM-bl assay [21] of over 30 µg/mL. For the same substance, the IC80 in TZM-bl assay [21] was over 30 µg/mL, the IC50 in TZM-bl assay [22] was over 30 µg/mL and the IC80 in TZM-bl assay [22] was over 30 µg/mL. For the same substance, the IC50 in TZM-bl assay [23] was 0.322 µg/mL, the IC80 in TZM-bl assay [23] was 1.13 µg/mL and the IC50 in TZM-bl assay [24] was over 30 µg/mL. It also gave an IC80 in TZM-bl assay [24] of over 30 µg/mL, an IC50 in TZM-bl assay [25] of over 30 µg/mL and an IC80 in TZM-bl assay [25] of over 30 µg/mL. The IC50 in TZM-bl assay [26] was over 30 µg/mL, the IC80 in TZM-bl assay [26] was over 30 µg/mL and the IC50 in TZM-bl assay [27] was over 30 µg/mL. It also gave an IC80 in TZM-bl assay [27] of over 30 µg/mL, an IC50 in TZM-bl assay [28] of over 30 µg/mL and an IC80 in TZM-bl assay [28] of over 30 µg/mL. For the same substance, the IC50 in TZM-bl assay [29] was 1.22 µg/mL, the IC80 in TZM-bl assay [29] was 6.79 µg/mL and the IC50 in TZM-bl assay [30] was over 30 µg/mL. It also gave an IC80 in TZM-bl assay [30] of over 30 µg/mL, an IC50 in TZM-bl assay [31] of 0.034 µg/mL and an IC80 in TZM-bl assay [31] of 0.125 µg/mL. It also gave an IC50 in TZM-bl assay [32] of over 30 µg/mL, an IC80 in TZM-bl assay [32] of over 30 µg/mL and an IC50 in TZM-bl assay [33] of 4.26 µg/mL. For the same substance, the IC80 in TZM-bl assay [33] was over 30 µg/mL, the IC50 in TZM-bl assay [34] was 1.47 µg/mL and the IC80 in TZM-bl assay [34] was 5.45 µg/mL. The IC50 in TZM-bl assay [35] was over 30 µg/mL and the IC80 in TZM-bl assay [35] was over 30 µg/mL.

BG18 IgG (354BG18) (antibody) showed an IC50 in TZM-bl assay [36] of 0.012 µg/mL, an IC80 in TZM-bl assay [36] of 0.036 µg/mL and an IC50 in TZM-bl assay [37] of 0.005 µg/mL. For the same substance, the IC80 in TZM-bl assay [37] was 0.016 µg/mL, the IC50 in TZM-bl assay [38] was over 30 µg/mL and the IC80 in TZM-bl assay [38] was over 30 µg/mL.
